Molecular target: rabbit muscle F-actin (rabbit) (UniProt P68135)
Assay: single-molecule force spectroscopy (scanning force microscopy); Imp-PM19 or ∆D3 mutant covalently bound through a PEG crosslinker to the SFM tip; F-actin_(rabbit) with unlabeled phalloidin immobilised on poly-l-lysine mica; F-buffer pH 6.8; set point 800 pN; retraction speed 2 µm/s; 1000 curves; WLC fit

**Q.** Which results are given for “Imp-PM19-His (immunodominant membrane protein of 'Candidatus Phytoplasma mali' strain PM19, His-tagged) (natural protein)”?
**A.** interaction force: 40 to 400 pN; maximal work of adhesion: 4.5 to 5 aJ; most frequently observed adhesion: 80 to 90 pN; rupture force: 100 pN

From article PMC9860668
